From PMC7144476 (Molecular plant, 2015)

Target: MBP-BSU1 (Arabidopsis, UniProt Q9LR78 1-793)
Assay: pull-down

Sequence of MBP-BSU1 (Q9LR78 whole entry): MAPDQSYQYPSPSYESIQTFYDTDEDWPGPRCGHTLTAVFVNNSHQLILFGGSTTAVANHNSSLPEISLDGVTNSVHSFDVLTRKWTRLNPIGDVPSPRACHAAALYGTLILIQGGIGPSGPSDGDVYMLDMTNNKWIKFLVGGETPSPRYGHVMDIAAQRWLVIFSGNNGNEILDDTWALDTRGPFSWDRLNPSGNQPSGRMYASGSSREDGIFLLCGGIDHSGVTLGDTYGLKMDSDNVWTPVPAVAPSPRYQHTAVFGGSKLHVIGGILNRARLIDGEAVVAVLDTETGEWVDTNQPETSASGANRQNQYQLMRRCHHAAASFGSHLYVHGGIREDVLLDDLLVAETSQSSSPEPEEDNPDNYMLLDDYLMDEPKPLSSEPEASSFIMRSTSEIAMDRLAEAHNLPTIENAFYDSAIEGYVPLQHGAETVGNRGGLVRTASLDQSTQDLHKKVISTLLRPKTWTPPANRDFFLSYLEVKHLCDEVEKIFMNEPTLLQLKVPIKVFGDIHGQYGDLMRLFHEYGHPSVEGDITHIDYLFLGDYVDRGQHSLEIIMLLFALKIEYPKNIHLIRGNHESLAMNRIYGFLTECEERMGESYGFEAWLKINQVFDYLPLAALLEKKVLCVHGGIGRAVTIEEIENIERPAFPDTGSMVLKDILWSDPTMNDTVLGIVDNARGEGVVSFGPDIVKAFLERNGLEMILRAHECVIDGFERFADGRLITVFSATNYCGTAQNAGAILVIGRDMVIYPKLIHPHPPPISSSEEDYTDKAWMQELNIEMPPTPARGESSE

- binding result: binds
B1: BSK1-myc (natural protein, UniProt Q944A7 1-512, looked up)
chain: MGCCQSLFSGDNPLGKDGVQPQPLSQNNHGGATTADNGGSGGASGVGGGGGGGGIPSFSEFSFADLKAATNNFSSDNIVSESGEKAPNLVYKGRLQNRRWIAVKKFTKMAWPEPKQFAEEAWGVGKLRHNRLANLIGYCCDGDERLLVAEFMPNDTLAKHLFHWENQTIEWAMRLRVGYYIAEALDYCSTEGRPLYHDLNAYRVLFDEDGDPRLSCFGLMKNSRDGKSYSTNLAYTPPEYLRNGRVTPESVTYSFGTVLLDLLSGKHIPPSHALDMIRGKNIILLMDSHLEGKFSTEEATVVVELASQCLQYEPRERPNTKDLVATLAPLQTKSDVPSYVMLGIKKQEEAPSTPQRPLSPLGEACSRMDLTAIHQILVMTHYRDDEGTNELSFQEWTQQMKDMLDARKRGDQSFREKDFKTAIDCYSQFIDVGTMVSPTVFGRRSLCYLLCDQPDAALRDAMQAQCVYPDWPTAFYMQSVALAKLNMNTDAADMLNEAAQLEEKRQRGGRGS
